From the supplement of paper PMC10126150
± gives the standard deviation of the averaged measurements.

These sequences were tested on ATP (assay: switch fluorescence ratio, 500 uM ATP over buffer (Cy3 cluster intensity, sum of 5 cycles each) (fold (ratio)); higher = stronger signal-on switching upon ATP binding; sequences stand for … in TCGTCGGCAGCGTCAGATGTGTATAAGAGACAGTTTTTTTTTTTTTTTTTTTTTTTTT…TC). Settings: aptamer strand: ATP DNA aptamer (quencher-CACCTGGGGGAGTATTGCGGAGGAAGG + anchor), 100 nM annealed; ATP concentration: 500 uM.
In short: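 Values give the fluorescence ratio for each switch-domain sequence, averaged from per-cluster ratios of summed target-cycle to summed buffer-cycle Cy3 intensity. The Cy3-labelled switching-strand clusters sat on a modified Illumina MiSeq flow-cell, were annealed to 100 nM quencher-labelled ATP aptamer, and were imaged in selection buffer, then after 15 min with 500 uM ATP at 22 °C. Five cycles ran with NaOH stripping and re-annealing between them, and clusters outside 100-1000 RFU were excluded.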
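Note: ATP exposure 15 min at 22 °C before imaging.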

Row | Sequence | switch fluorescence ratio
1 | CCAATAGGCA | 1.046 ± 0.0078
2 | CCAATGGCAG | 1.155 ± 0.0045
3 | CCAATGTTTT | 0.98 ± 0.016
4 | CCACACCATT | 1.058 ± 0.004
5 | CCACAGTGTT | 1.61 ± 0.1
6 | CCACCATTTT | 1.13 ± 0.12
7 | CCACCGGGGA | 1.85 ± 0.49
8 | CCACCGGTAT | 1.69 ± 0.048
9 | CCACCTATCA | 1.07 ± 0.031
10 | CCACCTGGCG | 1.29 ± 0.017
11 | CCACGATTAA | 1.003 ± 0.008
12 | CCACGCTCGC | 2.33 ± 0.21
13 | CCACGGGGTT | 1.06 ± 0.072
14 | CCACGTGAGG | 1.03 ± 0.012
15 | CCACTAGGGC | 1.09 ± 0.017
16 | CCACTGGGTG | 4.394 ± 0.031
17 | CCAGAACGAA | 1.037 ± 0.0099
18 | CCAGAATTCG | 0.98 ± 0.024
19 | CCAGACGCGG | 1.14 ± 0.051
20 | CCAGAGGCTA | 1.1475 ± 0.00019
21 | CCAGCGGTTG | 1.025 ± 0.004
22 | CCAGCTGCGG | 1.01 ± 0.022
23 | CCAGCTGGGT | 1.0117 ± 0.0005
24 | CCAGCTGGT | 1.02 ± 0.042
25 | CCAGCTTTTA | 1.09 ± 0.052

Row | Sequence | switch fluorescence ratio
26 | CCAGGCAAGG | 1.18 ± 0.019
27 | CCAGGCGATG | 1.05 ± 0.005
28 | CCAGGCGCTA | 1.611 ± 0.014
29 | CCAGGCGTAT | 1.032 ± 0.0023
30 | CCAGGGCGGG | 0.99 ± 0.043
31 | CCAGGGGAAG | 0.996 ± 0.017
32 | CCAGGGGGAT | 1.97 ± 1.3
33 | CCAGGGTATC | 1.064 ± 0.0063
34 | CCAGGGTTGT | 1.11 ± 0.037
35 | CCAGGTAACA | 1.03 ± 0.012
36 | CCAGGTATTT | 1.1 ± 0.016
37 | CCAGGTCGAC | 1.02 ± 0.063
38 | CCAGGTGTTG | 3.12 ± 0.44
39 | CCAGTAGGAG | 1.07 ± 0.051
40 | CCAGTAGTCT | 1.05 ± 0.019
41 | CCAGTTAAGA | 0.989 ± 0.024
42 | CCAGTTCGGA | 0.981 ± 0.059
43 | CCAGTTGGGA | 1 ± 0.032
44 | CCATACGTAG | 1.035 ± 0.0066
45 | CCATCAAATA | 1.01 ± 0.015
46 | CCATGAACAT | 1 ± 0.028
47 | CCATGCCACA | 1.05 ± 0.029
48 | CCATGGAGGT | 1.01 ± 0.034
49 | CCATGGGAAA | 0.961 ± 0.03
50 | CCATGGGGGG | 1.11 ± 0.18

Row | Sequence | switch fluorescence ratio
51 | CCATGTTTGG | 0.996 ± 0.028
52 | CCATTAATTT | 1.11 ± 0.17
53 | CCATTACGTT | 1.04 ± 0.05
54 | CCATTATAT | 0.982 ± 0.043
55 | CCATTGAGAC | 1.04 ± 0.029
56 | CCATTTGCGG | 1.001 ± 0.0088
57 | CCATTTTGTT | 0.984 ± 0.015
58 | CCATTTTTTA | 0.9825 ± 0.0097
59 | CCCATGCTTA | 1.046 ± 0.003
60 | CCCATGGACT | 1.034 ± 0.0088
61 | CCCCAAGACG | 0.997 ± 0.011
62 | CCCCATTTTA | 1 ± 0.018
63 | CCCCCCGGGG | 1.61 ± 0.32
64 | CCCCTGACAA | 1.79 ± 0.059
65 | CCCCTGTACT | 1.227 ± 0.0074
66 | CCCGAGGGGT | 1.019 ± 0.0065
67 | CCCGAGTGGG | 0.992 ± 0.054
68 | CCCGCATGAT | 5.66 ± 0.2
69 | CCCGCGGTTA | 1.23 ± 0.032
70 | CCCGGAGGCC | 0.961 ± 0.034
71 | CCCGGCATCT | 1.2197 ± 0.00016
72 | CCCGGGAATC | 1.06 ± 0.059
73 | CCCGGGATAT | 1.06 ± 0.056
74 | CCCGTGCCAG | 1.02 ± 0.025
75 | CCCGTTTTTG | 0.986 ± 0.014

Row | Sequence | switch fluorescence ratio
76 | CCCTGTCGGC | 0.997 ± 0.037
77 | CCCTGTGAAA | 0.975 ± 0.028
78 | CCCTTGGGGG | 1.01 ± 0.014
79 | CCCTTGTGTG | 1.43 ± 0.051
80 | CCGAAAATAG | 3.58 ± 0.48
81 | CCGAACTATG | 1.135 ± 0.0027
82 | CCGAACTGGT | 1.1 ± 0.05
83 | CCGAATGAGG | 0.995 ± 0.032
84 | CCGAGACCGC | 2.71 ± 0.2
85 | CCGAGAGGGG | 0.999 ± 0.041
86 | CCGAGATTGC | 1.95 ± 0.14
87 | CCGAGGGAGA | 1.25 ± 0.024
88 | CCGAGGGCGC | 1.2 ± 0.031
89 | CCGAGGGGGA | 1.26 ± 0.17
90 | CCGAGGGTTA | 1.34 ± 0.12
91 | CCGAGGTTTT | 1.33 ± 0.22
92 | CCGAGTGCAG | 2.24 ± 0.33
93 | CCGATACGGT | 1.08 ± 0.034
94 | CCGATAGCGT | 2.81 ± 0.45
95 | CCGATTAATA | 1.34 ± 0.028
96 | CCGATTGGTA | 1.027 ± 0.0057
97 | CCGCAGCGGA | 2.12 ± 0.27
98 | CCGCAGGGGT | 3.1 ± 2.8
99 | CCGCCACCTG | 1.56 ± 0.059
100 | CCGCGGGGGG | 1.08 ± 0.088

Row | Sequence | switch fluorescence ratio
101 | CCGCGGGTTG | 1.05 ± 0.02
102 | CCGCGGTCGT | 1.3 ± 0.085
103 | CCGCTATTGT | 2.77 ± 0.4
104 | CCGGAACGGT | 0.986 ± 0.031
105 | CCGGACGGAA | 1.12 ± 0.071
106 | CCGGAGAGTT | 1.58 ± 0.11
107 | CCGGAGGAGA | 1.06 ± 0.017
108 | CCGGATGTTG | 0.987 ± 0.028
109 | CCGGCTTAGA | 1.14 ± 0.2
110 | CCGGGAGCCG | 1.023 ± 0.0053
111 | CCGGGATCAG | 1.09 ± 0.035
112 | CCGGGATTTT | 1.09 ± 0.13
113 | CCGGGCAGAG | 1.96 ± 0.071
114 | CCGGGCCATC | 2.3 ± 0.038
115 | CCGGGCGAGC | 1.08 ± 0.059
116 | CCGGGCGTCG | 1.26 ± 0.31
117 | CCGGGCTTAG | 1.28 ± 0.047
118 | CCGGGGGAAG | 1.04 ± 0.035
119 | CCGGGGGATT | 1.4 ± 0.49
120 | CCGGGGGCAG | 1.105 ± 0.0064
121 | CCGGGGGCCT | 1.08 ± 0.032
122 | CCGGGGGCGG | 1.01 ± 0.015
123 | CCGGGGGCTC | 1.87 ± 0.97
124 | CCGGGGGCTT | 1.22 ± 0.019
125 | CCGGGGGGCT | 1.09 ± 0.043

Row | Sequence | switch fluorescence ratio
126 | CCGGGGGTGC | 1.24 ± 0.27
127 | CCGGGGTAGG | 1.04 ± 0.024
128 | CCGGGGTCCG | 1.13 ± 0.041
129 | CCGGGGTCGC | 1 ± 0.026
130 | CCGGGGTTAT | 1.119 ± 0.0047
131 | CCGGGGTTGG | 1 ± 0.012
132 | CCGGGGTTGT | 1.16 ± 0.22
133 | CCGGGTCAGC | 1.21 ± 0.026
134 | CCGGGTGAAG | 1.07 ± 0.063
135 | CCGGGTGGTT | 1.02 ± 0.08
136 | CCGGGTTCGC | 0.998 ± 0.083
137 | CCGGTACTTT | 1.05 ± 0.016
138 | CCGGTATTGT | 1.03 ± 0.037
139 | CCGGTCTAGC | 1.14 ± 0.041
140 | CCGGTGGATT | 1.21 ± 0.3
141 | CCGGTGTGAG | 1.04 ± 0.021
142 | CCGGTTAAGG | 1 ± 0.05
143 | CCGGTTACGT | 1.17 ± 0.2
144 | CCGGTTAGG | 0.998 ± 0.045
145 | CCGGTTATAA | 1.278 ± 0.009
146 | CCGGTTTGTC | 1.02 ± 0.044
147 | CCGTAGAGTT | 1.29 ± 0.031
148 | CCGTAGTGGT | 2.9 ± 1.4
149 | CCGTATAAGG | 1.023 ± 0.0038
150 | CCGTATGGAG | 0.9959 ± 0.002

Row | Sequence | switch fluorescence ratio
151 | CCGTCGGTCG | 1 ± 0.023
152 | CCGTCTAATA | 1.42 ± 0.49
153 | CCGTGCGAAA | 2.99 ± 0.59
154 | CCGTGGGTGT | 1.26 ± 0.15
155 | CCGTGGTTTA | 1 ± 0.01
156 | CCGTTAGAGG | 1.01 ± 0.038
157 | CCGTTAGGCG | 0.987 ± 0.029
158 | CCGTTAGTGG | 1.04 ± 0.042
159 | CCGTTATGCA | 1.26 ± 0.018
160 | CCGTTCAGAA | 1.08 ± 0.019
161 | CCGTTTCGGT | 0.976 ± 0.014
162 | CCGTTTGTTT | 1.005 ± 0.005
163 | CCGTTTTAGT | 1.02 ± 0.039
164 | CCTAATGGGC | 1.014 ± 0.0092
165 | CCTACTTCCA | 1.103 ± 0.0013
166 | CCTAGCGCGC | 1.09 ± 0.043
167 | CCTAGGCCCG | 1.03 ± 0.053
168 | CCTAGGGGGT | 1.02 ± 0.029
169 | CCTAGGGTGT | 2.12 ± 0.32
170 | CCTAGGGTTT | 1 ± 0.038
171 | CCTATACGGG | 1.03 ± 0.049
172 | CCTATATAGA | 0.999 ± 0.029
173 | CCTATGGTTC | 1.07 ± 0.053
174 | CCTATTACGA | 1.04 ± 0.015
175 | CCTATTATTA | 1.02 ± 0.028

Row | Sequence | switch fluorescence ratio
176 | CCTATTCCGG | 1.05 ± 0.03
177 | CCTATTCGTT | 1.0064 ± 0.0008
178 | CCTATTTTTT | 1.01 ± 0.034
179 | CCTCAATGGT | 1.39 ± 0.045
180 | CCTCACCCTT | 1.13 ± 0.013
181 | CCTCACTAGT | 1.0949 ± 8.2e-05
182 | CCTCATCTTG | 1.018 ± 0.0048
183 | CCTCGGGGGG | 1.06 ± 0.1
184 | CCTCTGGAGG | 1.09 ± 0.013
185 | CCTCTTGAGG | 0.978 ± 0.016
186 | CCTGAAACCT | 1.51 ± 0.48
187 | CCTGAGATAC | 1.88 ± 1
188 | CCTGAGGTTC | 1.03 ± 0.061
189 | CCTGAGTTC | 0.996 ± 0.031
190 | CCTGGAAAGT | 0.985 ± 0.0074
191 | CCTGGCATGC | 2.56 ± 0.24
192 | CCTGGCATTG | 1.18 ± 0.09
193 | CCTGGCATTT | 2.2 ± 1.4
194 | CCTGGCCAGC | 0.978 ± 0.015
195 | CCTGGCTATC | 3.44 ± 0.91
196 | CCTGGCTCAT | 1.06 ± 0.037
197 | CCTGGGATT | 1.02 ± 0.011
198 | CCTGGGGAAA | 0.946 ± 0.021
199 | CCTGGGGATT | 1.07 ± 0.18
200 | CCTGGGGGTC | 1.03 ± 0.024
